Columns and labels:
Experiment in all cases: spectrophotometric PMM assay (as in earlier work)
Format in all cases: biochemical, Triticum aestivum
Conditions in all cases: average of three experiments; temperature and pH not given
[1] = substrate: O=P(O)(O)O[C@H]1O[C@H](CO)[C@@H](O)[C@H](O)[C@@H]1O
Source text: spectrophotometric PMM assay (as in earlier work) on TaPMM-A1 | The average Km (mM, mannose-1-phosphate) values calculated for recombinant A1, D1 and D2 proteins

[2] = substrate: O=P(O)(O)O[C@H]1O[C@H](CO)[C@@H](O)[C@H](O)[C@@H]1O; remark: listed apart in the source
Source text: spectrophotometric PMM assay (as in earlier work) on TaPMM-D1 | The average Km (mM, mannose-1-phosphate) values calculated for recombinant A1, D1 and D2 proteins

[3] = substrate: O=P(O)(O)O[C@H]1O[C@H](CO)[C@@H](O)[C@H](O)[C@@H]1O; remark: listed apart in the source
Source text: spectrophotometric PMM assay (as in earlier work) on TaPMM-D2 | The average Km (mM, mannose-1-phosphate) values calculated for recombinant A1, D1 and D2 proteins

B1: TaPMM-A1 (Triticum aestivum) (protein)
chain: MAAARKDAGVLALFDVDGTLTAPRKEVTPEMLEFMKRLRENVTVGVVGGSDLVKISEQLGKSVITDYDYVFSENGLVAHKDGKLIGTQSLKTYLGDDQLKEFINFTLHYIADLDIPIKRGTFIEFRSGMINVSPIGRNCSQEERDDFEKYDKVHNVRPKMVSVLREKFAHLNLTFSIGGQISFDVFPQGWDKTYCLRYLEEFKEIHFFGDKTYKGGNDHEIFESDRTVGHTVTSPNDTVQQCKSIFLSE
B1 showed a Km [1] of 460 ± 20 µM.

B2: TaPMM-D1 (Triticum aestivum) (protein)
chain: MAAAAAARKTAGVLALFDVDGTLTAPRKEVTPEMLEFMKRLRENVTVGVVGGSDLVKISEQLGKSVITDYDYVFSENGLVAHKDGKLIGTQSLKTYLGDDQLKEFINFTLHYIADLDIPIKRGTFIEFRSGMINVSPIGRNCSQEERDDFEKYDKVHNVRPKMVSVLREKFAHLNLTFSIGGQISFDVFPQGWDKTYCLRYLEEFKEIHFFGDKTYKGGNDHEIFESERTVGHTVTSPNDTVQQCKSIFLSE
In the case of B2, the Km [2] is reported as 400 ± 20 µM.

B3: TaPMM-D2 (Triticum aestivum) (protein)
chain: MVASAARKNAGVLALFDVDGTLTAPRKEVTPEMLEFMKRLRENVTVGVVGGSDLVKISEQLGKSVITDYDYVFSENGLVAHKDGKLIGTQSLKTYLGDDQLKEFINFTLHYIADLDIPIKRGTFIEFRSGMINVSPIGRNCSQEERDDFEKYDKVHNVRPKMVSMLREKFAHLNLTFSIGGQISFDVFPHGWDKTYCLRYLDEFKEIHFFGDKTYKGGNDHEIFESDRTVGHTVTSPDDTVQQCRSIFLSK
Work on B3 yielded a Km [3] of 480 ± 20 µM.

Reference: publication PMC3017832, “Molecular analysis of phosphomannomutase (PMM) genes reveals a unique PMM duplication event in diverse Triticeae species and the main PMM isozymes in bread wheat tissues” (BMC Plant Biology, 2010)
